This is an account of results in patent US5882914, “Nucleic acids encoding the hypoxia inducible factor-1” (The Johns Hopkins University School of Medicine).

For series [1], the target named is T1, HIF-1 (HIF-1alpha/HIF-1beta ARNT heterodimer) (Homo sapiens, UniProt Q16665;P27540 Q16665:1-826,P27540:2-789). Nature of the series: EMSA; similar to W18; competed by W18 not M18. Conditions: tags: none; 5' GATC overhang added. How it is done: (§1) The sense strand sequence of the W18 and M18 oligonucleotides was as given above. HIF-1 was partially purified from 50 liters of CoCl_2-treated HeLa cells by crude nuclear extract preparation, DEAE-Sepharose chromatography, MonoQ fast protein liquid chromatography, and DNA affinity chromatography. Incubations with crude nuclear extracts and partially purified HIF-I contained 100 and 1 ng of denatured calf thymus DNA, respectively. Competition experiments were performed with 5 ng of unlabeled W18 or MI8 oligonucleotide.
EMSA was also performed with a preparation of HIF-1 from CoCl_2-treated HeLa cells that was purified approximately 600-fold by DEAE-cellulose, MonoQ, and DNA affinity chromatography. Each probe bound HIF-1 in a manner that was qualitatively and quantitatively similar to the complex formed with W18. The binding of HIF-1 to these probes was sequence-specific as it could be competed by an excess of unlabeled W18 but not by mutant oligonucleotide M18, containing a 3-nucleotide substitution previously shown to eliminate HIF-1 binding and hypoxia-inducible enhancer function. Similar results were obtained when competition experiments involving W18 and M18 were performed with crude nuclear extract from hypoxic Hep3B cells. […] Given the biased method of ascertainment, it is possible that HIF-1 may recognize other sequences not represented by this consensus. In addition to the 6 HIF-1 sites from glycolytic genes, the sequence 5'-CACGTGCT-3' (SEQ ID NO:34) was also present in the hENO1 5'-FS at -786 to -793 (Gialongo et al. (1990) Eur. J. Biochem. 190:567–573) but was not tested for HIF-1 binding. Thus, a total of 7 probable HIF-1 sites were identified in 20.7 kb of nucleotide sequence reported to GenBank for these 5 glycolytic genes. In contrast, no sequences matching the consensus HIF-1 site were identified on either DNA strand within a total of 43.5 kb, comprising the nucleotide sequences of 5 randomly chosen genes, AFP, BUP4, CREB, DHFR, and EPOR (Gibbs et al. (1987) Biochemistry 26;1332–1343; Kurihara et al. (1993) Biochem.

Series [2] addresses T1, HIF-1 (HIF-1alpha/HIF-1beta ARNT …). Description: EMSA; similar to W18; competed by W18 not M18; printed CADGTGCG in table. The settings on record: tags: none; 5' GATC overhang added.
Source text: as §1, with “Double-stranded oligonucleotides were synthesized according to the sequences shown in Table 2 except that each oligonucleotide contained at its 5'-end the sequence 5'-GATC-3', which formed a single-stranded 5' overhang when complementary oligonucleotides were annealed. The” for “The”
(§2) EMSA was also performed with a preparation of HIF-1 from CoCl_2-treated HeLa cells that was purified approximately 600-fold by DEAE-cellulose, MonoQ, and DNA affinity chromatography. Each probe bound HIF-1 in a manner that was qualitatively and quantitatively similar to the complex formed with W18. The binding of HIF-1 to these probes was sequence-specific as it could be competed by an excess of unlabeled W18 but not by mutant oligonucleotide M18, containing a 3-nucleotide substitution previously shown to eliminate HIF-1 binding and hypoxia-inducible enhancer function. […]
(Mobility shift assays separate free from complexed probe on a gel.)

Series [3] shares this target. Description: EMSA; listed among 8 oligonucleotides shown to bind HIF-1 specifically. Conditions: tags: none; 5' GATC overhang added.
Source text: as §1, with “Double-stranded oligonucleotides were synthesized according to the sequences shown in Table 2 except that each oligonucleotide contained at its 5'-end the sequence 5'-GATC-3', which formed a single-stranded 5' overhang when complementary oligonucleotides were annealed. The” for “The”
as §2

Series [4] shares this target. Description: competition; 250-fold excess M18 does not compete; HIF-1 in M18 column flowthrough. The settings on record: tags: none; 5' GATC overhang. The protocol:
(§3) Figure 3A: FIG. 3A is an autoradiograph showing gel shift assay analysis of column fractions for HIF-1 DNA binding activity. Nuclear extracts were fractionated by DEAE-Sepharose chromatography, and fractions containing HIF-1 activity were applied to a W18 DNA affinity column. 5 ug of protein were incubated with 0.1 ug of calf thymus DNA for gel shift analysis of crude nuclear extract (Crude NE, lane 1) and HIF-1 active fractions from DEAE-Sepharose columns (DEAE, lane 2). For fractions from the W18 column (lanes 3–13), 1 ul aliquots were incubated with 5 ng of calf thymus DNA. The positions of the two HIF-1 bands, constitutive activity (C), nonspecific activity (NS), and free probe (F) are indicated. FT, flowthrough, 0.25M, 0.5M, 1M, and 2M are fractions eluted with indicated concentration of KCl in buffer Z. Figure 3B: FIG. 3B is an autoradiograph showing sequence-specific DNA binding of the partially purified fractions described in the legend to FIG. 3A. 5 ug aliquots of fractions from the DEAE-Sepharose column were incubated with W18 probe in the presence of no competitor (lane 1), 10-fold (lanes 2 and 5), 50-fold (lanes 3 and 6), or 250-fold (lanes 4 and 7) molar excess of unlabeled W18 (W, lanes 2–4) or M18 (M, lanes 5–7) oligonucleotide.

For series [5] the target is unchanged. Nature of the series: EMSA; buffer Z-100; also UV cross-linking of both subunits, competed by W18 not M18. Conditions: tags: none; 5' GATC overhang. How it is done: as §3
UV Cross-Linking Analysis. […]

T1 sequence (Q16665 whole entry, chain 1 of 2): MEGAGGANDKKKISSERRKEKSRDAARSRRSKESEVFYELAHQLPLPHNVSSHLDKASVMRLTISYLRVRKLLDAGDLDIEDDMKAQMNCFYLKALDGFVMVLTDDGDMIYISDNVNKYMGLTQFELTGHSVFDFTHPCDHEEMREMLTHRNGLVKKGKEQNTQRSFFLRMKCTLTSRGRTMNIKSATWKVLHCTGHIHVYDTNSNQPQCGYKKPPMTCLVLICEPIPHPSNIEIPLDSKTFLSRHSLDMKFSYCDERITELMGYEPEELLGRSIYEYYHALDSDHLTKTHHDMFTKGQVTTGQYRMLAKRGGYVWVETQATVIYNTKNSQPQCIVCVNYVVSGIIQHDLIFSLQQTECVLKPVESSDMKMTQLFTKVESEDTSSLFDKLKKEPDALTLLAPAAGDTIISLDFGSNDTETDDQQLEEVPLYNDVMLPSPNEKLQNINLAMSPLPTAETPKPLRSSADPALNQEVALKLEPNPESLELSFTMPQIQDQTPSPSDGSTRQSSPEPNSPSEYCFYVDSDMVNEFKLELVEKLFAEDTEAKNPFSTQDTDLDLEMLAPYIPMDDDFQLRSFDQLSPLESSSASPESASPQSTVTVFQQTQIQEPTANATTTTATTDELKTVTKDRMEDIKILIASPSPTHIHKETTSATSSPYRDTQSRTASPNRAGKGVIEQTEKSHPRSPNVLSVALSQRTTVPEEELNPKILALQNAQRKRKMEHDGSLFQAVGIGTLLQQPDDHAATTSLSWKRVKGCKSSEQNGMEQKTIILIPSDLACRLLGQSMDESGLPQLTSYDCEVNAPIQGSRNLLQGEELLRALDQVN
T1 sequence (P27540 2-789, chain 2 of 2): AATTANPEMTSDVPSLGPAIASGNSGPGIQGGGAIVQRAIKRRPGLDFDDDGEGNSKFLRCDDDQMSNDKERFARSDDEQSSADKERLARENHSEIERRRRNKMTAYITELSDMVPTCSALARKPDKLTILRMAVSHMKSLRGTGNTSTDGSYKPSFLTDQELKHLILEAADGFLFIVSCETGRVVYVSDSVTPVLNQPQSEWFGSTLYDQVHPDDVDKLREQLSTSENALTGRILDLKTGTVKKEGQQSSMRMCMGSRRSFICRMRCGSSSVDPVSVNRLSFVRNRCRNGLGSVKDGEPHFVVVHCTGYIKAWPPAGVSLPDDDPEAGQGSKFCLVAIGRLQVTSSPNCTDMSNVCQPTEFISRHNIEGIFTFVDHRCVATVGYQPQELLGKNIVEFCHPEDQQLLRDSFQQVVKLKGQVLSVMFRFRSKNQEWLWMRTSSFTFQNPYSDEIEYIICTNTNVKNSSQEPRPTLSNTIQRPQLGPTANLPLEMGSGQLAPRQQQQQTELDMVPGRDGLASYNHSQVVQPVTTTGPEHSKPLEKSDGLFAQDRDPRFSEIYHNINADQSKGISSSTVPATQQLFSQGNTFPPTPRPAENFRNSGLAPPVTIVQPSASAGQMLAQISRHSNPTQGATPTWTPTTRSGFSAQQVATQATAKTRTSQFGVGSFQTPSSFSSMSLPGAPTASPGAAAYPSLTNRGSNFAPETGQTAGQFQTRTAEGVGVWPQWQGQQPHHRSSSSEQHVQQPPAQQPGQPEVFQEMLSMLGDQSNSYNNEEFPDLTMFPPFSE

B1: hALDA IVS-4 (dsDNA)
DNA 1: CTTCACGTGCGGGGACCAGGGACCGT
DNA 2: ACGGTCCCTGGTCCCCGCACGTGAAG
Take B1: the binding result in series [1] is reported as “binds”.

B2: hPGK1 5'-UT (dsDNA)
DNA 1: CTGCCGACGTGCGCTCCGGAG
DNA 2: CTCCGGAGCGCACGTCGGCAG
As to B2, the binding result in series [1] is listed as “binds”.

B3: hENO1 5'-FS (dsDNA)
DNA 1: GGCCACGTGCGCCGCCTGCGCCTGCG
DNA 2: CGCAGGCGCAGGCGGCGCACGTGGCC
On to B3, for which the binding result in series [2] is “binds”.

B4: hEPO 3'-FS (dsDNA)
DNA 1: GCCCTACGTGCTGTCTCACACAGCCTGTCTGA
DNA 2: TCAGACAGGCTGTGTGAGACAGCACGTAGGGC
As to B4, in series [3], the binding result was “binds”.

B5: hEPO 5'-FS (dsDNA)
DNA 1: GGGGCTGCTGCAGACGTGCGTGTG
DNA 2: CACACGCACGTCTGCAGCAGCCCC
For the molecule B5, in series [1], the binding result is listed as “binds”.

B6: mPFKL IVS-1 (dsDNA)
DNA 1: CCGGGTAGCTGGCGTACGTGCTGCAG
DNA 2: CTGCAGCACGTACGCCAGCTACCCGG
For the molecule B6, the binding result in series [1] was “binds”.

B7: M18 (dsDNA)
DNA 1: GATCGCCCTAAAAGCTGTCTCA
DNA 2: TGAGACAGCTTTTAGGGCGATC
Turning to B7, in series [4], the binding result is “no binding”.

B8: W18 (dsDNA)
DNA 1: GATCGCCCTACGTGCTGTCTCA
DNA 2: TGAGACAGCACGTAGGGCGATC
Regarding B8, in series [5], the binding result was “binds”.

B9: hPGK1 5'-FS (dsDNA)
DNA 1: GTGAGACGTGCGGCTTCCGTTTG
DNA 2: CAAACGGAAGCCGCACGTCTCAC
As to B9, the binding result in series [1] is “binds”.

B10: mLDHA 5'-FS (dsDNA)
DNA 1: GTGGGAGCCCAGCGGACGTGCGGGAA
DNA 2: TTCCCGCACGTCCGCTGGGCTCCCAC
For the molecule B10, the binding result in series [1] is recorded as “binds”.
